The values that follow come from article doi:10.1101/2022.07.14.500063.

Experiment [1] concerns the target Delta RBD+L455S (SARS-CoV-2) (UniProt P0DTC2).
For experiment [2], the target named is Delta RBD+E406Q (SARS-CoV-2) (UniProt P0DTC2).
In experiment [3] the target is Delta RBD+E406D (SARS-CoV-2) (UniProt P0DTC2).
In experiment [4] the target is Delta RBD+L455S (SARS-CoV-2) (UniProt P0DTC2). The source holds these as a separate data set.
In experiment [5] the target is Delta+L455F Spike on pseudotyped lentivirus (SARS-CoV-2) (UniProt P0DTC2).
The target in experiment [6] is Delta+Y453F Spike on pseudotyped lentivirus (SARS-CoV-2) (UniProt P0DTC2).

Consider casirivimab (REGN10933) (antibody), for which the figures for the fold reduction in pseudoviral neutralisation titre in experiment [1], in experiment [2] and in experiment [3] were 65 fold, 12 fold and 2 fold, respectively. The fold reduction in pseudoviral neutralization titre against wild-type Delta came out at 155 fold in experiment [4], 17 fold in experiment [5] and 16 fold in experiment [6].
